In patent US20150307603A1 (MODIQUEST B V, published 2015):
Non-standard residues stand in square brackets, D forms with d. No end group written: not given here. Cit = NC(=O)NCCC[C@H](N)C(=O)O

Assays:
[1] = molecular target: T1, CFC-1; assay: ELISA, Ab 10 ug/well
T1 construct: Positive control for anti-citrulline reactivity; also called cfc1 XG; Cfc1-peptide
Experimental: (§1) Biotin and citrulline-containing peptides derived from fibrinogen and vimentin were immobilized on NEUTRAVIDIN®-coated 96-well ELISA plates (0.3 μg/well). CFC-1 and CFC-0 were coated at the same concentration and served as positive and negative controls, respectively, for specific anti-citrulline reactivity and as coating controls. Non-coated wells were used to test for aspecific binding of the antibodies. […] Detection of bound anti-citrulline antibodies was performed by incubating the wells with rabbit anti-human HRP (1:2000) for 1 hour at RT followed by incubation with TMB substrate. The resulting OD (y-axis) is a measure for antibody binding.
(§2) Biotin-labeled and citrulline-containing fibrinogen and vimentin peptides (Table 5) were also tested for reactivity with the therapeutic antibodies. Peptides were coated on 96-well NEUTRAVIDIN®-ELISA plates.

[2] = molecular target: T2, msFibα XH (mouse, X at position 15 = citrulline; biotin-labelled); assay: ELISA, Ab 10 ug/well
T2 peptide: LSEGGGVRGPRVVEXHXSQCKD
Experimental: as §1, §2

[3] = molecular target: T3, huFibα XH (human, X at position 15 = citrulline; biotin-labelled); assay: ELISA, Ab 10 ug/well
T3 peptide: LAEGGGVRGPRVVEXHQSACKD
Experimental: as §1, §2

[4] = molecular target: T4, msFibβ XG (mouse, also: biotin-labelled); assay: ELISA, Ab 10 ug/well
T4 construct: also called mouse fibrinogen β peptide
T4 peptide: EPTDSLDA[Cit]GHRPVDRR
Experimental: as §1, §2

[5] = molecular target: T5, human recombinant histone 2A (human); assay: ELISA, Ab 0.016 ug/well
T5 construct: Non-deiminated; also called H2A
Text: (§3) The resulting OD (y-axis) is a measure for antibody binding. H1-recombinant histone 1; H1/p2-huPAD2 recombinant histone 1; H1/p4-huPAD4 recombinant histone 1, and so forth (x-axis).

[6] = molecular target: T6, huPAD2-deiminated human recombinant histone 2A (human); assay: ELISA, Ab 0.016 ug/well
T6 construct: also called H2A/p2; histone 2A/p2
Text: as §3

[7] = molecular target: T7, huPAD4-deiminated human recombinant histone 2A (human); assay: ELISA, Ab 0.016 ug/well
T7 construct: also called H2A/p4; histone 2A/p4
Text: as §3

[8] = molecular target: T8, human recombinant histone 2B (human); assay: ELISA, Ab 0.016 ug/well
T8 construct: Non-deiminated; also called H2B
Text: as §3

[9] = molecular target: T9, huPAD2-deiminated human recombinant histone 2B (human); assay: ELISA, Ab 0.016 ug/well
T9 construct: also called H2B/p2
Text: as §3

[10] = molecular target: T10, huPAD4-deiminated human recombinant histone 2B (human); assay: ELISA, Ab 0.016 ug/well
T10 construct: also called H2B/p4
Text: as §3

[11] = molecular target: T11, huPAD2-deiminated human recombinant histone 3 (human); assay: ELISA, Ab 0.016 ug/well
T11 construct: also called H3/p2; histone 3/p2
Text: as §3

[12] = molecular target: T12, huPAD4-deiminated human recombinant histone 3 (human); assay: ELISA, Ab 0.016 ug/well
T12 construct: also called H3/p4
Text: as §3

[13] = molecular target: T13, human recombinant histone 4 (human, UniProt P62805 2-103); assay: ELISA, Ab 0.016 ug/well
Text: as §3

[14] = molecular target: T1, CFC-1; assay: ELISA, Ab 0.016 ug/well
Text: as §3

[15] = molecular target: T5, human recombinant histone 2A; assay: ELISA, Ab 0.00064 ug/well
Text: as §3

[16] = molecular target: T6, huPAD2-deiminated human recombinant …; assay: ELISA, Ab 0.00064 ug/well
Text: as §3

[17] = molecular target: T7, huPAD4-deiminated human recombinant …; assay: ELISA, Ab 0.00064 ug/well
Text: as §3

[18] = molecular target: T8, human recombinant histone 2B; assay: ELISA, Ab 0.00064 ug/well
Text: as §3

[19] = molecular target: T9, huPAD2-deiminated human recombinant …; assay: ELISA, Ab 0.00064 ug/well
Text: as §3

[20] = molecular target: T10, huPAD4-deiminated human recombinant …; assay: ELISA, Ab 0.00064 ug/well
Text: as §3

[21] = molecular target: T13, human recombinant histone 4; assay: ELISA, Ab 0.00064 ug/well
Text: as §3

[22] = molecular target: T1, CFC-1; assay: ELISA, Ab 0.00064 ug/well
Text: as §3

[23] = molecular target: T1, CFC-1; assay: ELISA, Ab 0.000128 ug/well
Experimental: as §1, §2

[24] = molecular target: T2, msFibα XH; assay: ELISA, Ab 0.000128 ug/well
Experimental: as §1, §2

[25] = molecular target: T14, msFibα XG (mouse, X at position 8 = citrulline; biotin-labelled); assay: ELISA, Ab 0.000128 ug/well
T14 peptide: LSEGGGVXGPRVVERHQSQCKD
Experimental: as §1, §2

[26] = molecular target: T3, huFibα XH; assay: ELISA, Ab 0.000128 ug/well
Experimental: as §1, §2

[27] = molecular target: T15, huFibα XG (human, X at position 8 = citrulline; biotin-labelled); assay: ELISA, Ab 0.000128 ug/well
T15 peptide: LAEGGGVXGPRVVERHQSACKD
Experimental: as §1, §2

[28] = molecular target: T4, msFibβ XG; assay: ELISA, Ab 0.000128 ug/well
Experimental: as §1, §2

[29] = molecular target: T16, msVim XS/XL (mouse, also: biotin-labelled); assay: ELISA, Ab 0.000128 ug/well
T16 construct: also called mouse vimentin peptide
T16 peptide: YVT[Cit]SSAV[Cit]L[Cit]SSVP
Experimental: as §1, §2

B1: RhmAb2.102 (antibody, human IgG1, lambda)
heavy: not shown
light: QSVLTQPPSMSAAPGQKVTISCSGSSSNIGNNYVSWYQQVPGTAPKLLIYDDNKRPSGIPGRFSGSKSATSATLGITGLQAGDEADYYCGSWDDNLSVVLFGGGTKLTVLGQPKAAPSVTLFPPSSEELQANKATLVCLISDFYPGAVTVAWKADSSPVKAGVETTTPSKQSNNKYAASSYLSLTPEQWKSHRSYSCQVTHEGSTVEKTVAPTECS
notes: Human IgG1 lambda; also called Rhm2.102
In the case of B1, the OD [1] is reported as 3.89 OD450, the OD [2] is reported as 0.154 OD450 and the OD [3] is reported as 0.179 OD450. The OD [4] was 3.8 OD450, the OD [5] was 0.057 OD450 and the OD [6] was 0.628 OD450. It also gave an OD [7] of 0.426 OD450, an OD [8] of 0.065 OD450 and an OD [9] of 0.052 OD450. For the same binder, the OD [10] was 0.052 OD450, the OD [11] was 0.155 OD450 and the OD [12] was 0.076 OD450. The OD [13] was 0.061 OD450, the OD [14] was 0.702 OD450 and the OD [15] was 0.057 OD450. For the same binder, the OD [16] was 0.077 OD450, the OD [17] was 0.075 OD450 and the OD [18] was 0.052 OD450. It also gave an OD [19] of 0.052 OD450, an OD [20] of 0.055 OD450 and an OD [21] of 0.06 OD450. For the same binder, the OD [22] was 0.077 OD450, the OD [23] was 0.288 OD450 and the OD [24] was 0.089 OD450. It also gave an OD [25] of 0.119 OD450, an OD [26] of 0.12 OD450 and an OD [27] of 0.115 OD450. It also gave an OD [28] of 0.118 OD450 and an OD [29] of 0.133 OD450.
